This note sets out measurements from the supplement of paper PMC12042874.

± gives the uncertainty stated by the source.

This series in a line: amyloid nucleation score (Sup35N fusion, yeast selection) (log enrichment); library NNK1; higher = more nucleation; inactive = no reads after selection. In short, it runs like this:
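Psi-negative yeast expressed Sup35N fused to peptides of 20 random codons. They were induced 24 hours with 100 μM copper sulfate, grown 7 days at 30°C without adenine and uracil, and their plasmid inserts from input and output were Illumina-sequenced. The nucleation score is the DiMSum log enrichment of output over input reads, centred on the mode score of non-aggregating sequences. Sequences with under 100 input reads were excluded.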
CWASRSSCSLLYVRVVMRHC yielded an amyloid nucleation score of 0.371 ± 0.57.
The value for CWDGRQIWVILVIVLIRINA was -0.466 ± 0.91; that for CWKLETYTSTDSQVGQANLK was -1.28 ± 0.96.
On to CWPSRQF, for which the amyloid nucleation score is 0.373 ± 0.94.
As for CWRSVCGLLATGNQYFFGNA, the amyloid nucleation score worked out at 4.88 ± 0.07.
The value for CWVYFSNSSVILRR was 0.074 ± 0.84; that for CYGFCNCQYSESSKLLFDAL was -1.11 ± 0.34; that for CYSAVPIYDFKYRPAGYYIS was “inactive”.
The substance CYSGCYRLCRVIVASCRCRG gave an amyloid nucleation score of 0.015 ± 0.71.
Consider CYSVIRREQNLNILV, for which the amyloid nucleation score is 1.71 ± 0.53.
In turn, CYTHPVMSITLNSI registered an amyloid nucleation score of 2.36 ± 0.15.
Consider DACCYDECVS, for which the amyloid nucleation score came to 0.782 ± 0.25.
DACIGWVRYRSILCCMVLVA gave an amyloid nucleation score of -0.005 ± 1.7.
Substance DADDLSIGAVNRTC had an amyloid nucleation score of -0.066 ± 0.5.
The value for DAEFRHGAIIGLMVGGVVIA was 3.45 ± 0.22; that for DARSNSVLYQRCSTSRGRSG was -0.615 ± 0.84; that for DCCKLTDQQWDVIHAGIWGG was 1.55 ± 0.69.
The value for DCDGVLSLCIMVHEIYRKVG was “inactive”; that for DCISRLWR was -0.83 ± 0.89; that for DCPTYWFVAKFFANWVR was “inactive”.
The value for DEPLNTMRSYACWSSDSSHP was 0.139 ± 0.48; that for DFFRFC was “inactive”; that for DFFRSANMYLGFASGGEGNG was 0.77 ± 0.52.
Substance DFLIAVMEQSMAQFKGHSSD registered an amyloid nucleation score of 0.071 ± 1.2.
The value for DFRWWYLFC was 1.11 ± 0.26; that for DFYTVLEKYVM was -0.157 ± 0.7.
The value for DGFCCGIYYILSEMTGHSRS was 1.41 ± 0.65; that for DGHFVALSVLVCTMRC was 1.01 ± 0.65; that for DGLICVPVKLYVNIGKTFTW was 0.847 ± 0.41.
Regarding DGLKWVDWPWGHYGEMMVEM, the amyloid nucleation score worked out at 1.01 ± 0.55.
The value for DGRKG was 1.26 ± 0.66; that for DGRVKAKVMMVRNGSLRNVL was 0.002 ± 0.4; that for DGSGGPYIGILLWGLAKMSG was -0.488 ± 0.85.
The value for DHHRFRGLL was 0.657 ± 0.62; that for DHIEMFGKVGYYHNMILW was 0.762 ± 0.37.
Regarding DHNLWFDNAFMSLCCCMNMI, the amyloid nucleation score is 3.42 ± 0.19.
The value for DHPCTTWVLPSYGPEDPLPC was 0.175 ± 0.35; that for DHVSLSDSRKKRSQIGIIHA was 0.978 ± 0.45; that for DILCASPTLLAE was 0.161 ± 0.49.
In the case of DILQDFIGQPLRSN, the amyloid nucleation score was 1.04 ± 0.6.
Take DINNCSSEGRTYPFVIELPP: the amyloid nucleation score is 1.03 ± 0.76.
As for DINSYVAYLVYEGLVNGSDE, the amyloid nucleation score was 0.252 ± 0.46.
The value for DIPIDIWSYPQHGRFS was -0.814 ± 0.79; that for DIRVIVRIYQSIINL was 3.15 ± 0.09.
The value for DIVSVVVWLKQYLWFEQWNV was 0.644 ± 0.81; that for DKERSGTKQYNSYG was -0.039 ± 0.73; that for DKLVYLHWPIYNVSVLCCRG was 5.14 ± 0.095.
Consider DKVLQLMYMGLDSGVLPSKD, for which the amyloid nucleation score was -0.789 ± 1.
The value for DLCATDMGGYKRGEGPEGAL was -0.267 ± 1.1; that for DLFCFELVDHTLLLGWTTVQ was -0.564 ± 0.66; that for DLGKVVNCYFLFYR was 1.51 ± 0.25.
The value for DLKFHLLIWVCRIGSDKNVK was 0.071 ± 1.2.
The value for DLPLTYMCSN was 0.359 ± 0.7; that for DLRSPRNS was “inactive”.
The substance DLSWGSRHY displayed an amyloid nucleation score of -0.899 ± 0.42.
Turning to DLVYC, the amyloid nucleation score was -0.307 ± 0.52.
The value for DMFVGKTRMRRGSVMLYFMG was 0.829 ± 0.52.
